Assays:
[1] = tested on: HeLa Kyoto; experiment: melting temperature (median over replicates), in situ; higher = more thermally stable
[2] = tested on: HeLa Kyoto; experiment: thermal stability score vs G1/S (z-score of summed log2 fold changes over temperatures); higher = more thermally stable than in G1/S
[3] = tested on: HeLa Kyoto; experiment: solubility in G1/S (NP-40 vs SDS abundance) (log2 ratio); higher = more soluble; conditions: cell cycle stage: G1/S
[4] = tested on: HeLa Kyoto; experiment: solubility change mitosis vs G1/S (difference of NP-40 vs SDS log2 ratios) (log2 ratio difference); higher = more soluble in mitosis
[5] = cell cycle stage: early G1 (4.5 h after nocodazole release)
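Throughout, for melting temperature (median over replicates), in situ: HeLa Kyoto cells synchronized by double thymidine or nocodazole block, proteins quantified by TMT10plex mass spectrometry, three independent biological replicates.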
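Throughout, for solubility change mitosis vs G1/S (difference of NP-40 vs SDS log2 ratios): synchronized HeLa Kyoto cells (double thymidine block for G1/S, nocodazole release for mitosis), protein amounts in NP-40 versus SDS lysates quantified by mass spectrometry, three biological replicates.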
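Throughout, for solubility in G1/S (NP-40 vs SDS abundance): HeLa Kyoto cells arrested at G1/S by double thymidine block, proteins quantified by TMT10plex mass spectrometry in mild NP-40 versus SDS extracts, three biological replicates.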
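Throughout, for thermal stability score vs G1/S (z-score of summed log2 fold changes over temperatures): synchronized HeLa Kyoto cells, proteins quantified by TMT10plex mass spectrometry, three biological replicates, mitosis taken 0.5 h after nocodazole release, G1/S directly after double thymidine block.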

Substance | melting temperature ([1]; cell cycle stage: G1/S) | melting temperature ([1]; cell cycle stage: mitosis) | thermal stability score [2, 5] | thermal stability score ([2]; cell cycle stage: mitosis) | solubility in G1/S (log2) [3] | solubility change mitosis (log2) [4]
MICTFLRAVQYTEKLHRSSAKRLLLPYIVLNKACLKTEPSLRCGLQYQKKTLRPRCILGVTQKTIWTQGPSPRKAKEDGSKQVSVHRSQRGGTAVPTSQKVKEAGRDFTYLIVVLFGISITGGLFYTIFKELFSSSSPSKIYGRALEKCRSHPEVIGVFGESVKGYGEVTRRGRRQHVRFTEYVKDGLKHTCVKFYIEGSEPGKQGTVYAQVKENPGSGEYDFRYIFVEIESYPRRTIIIEDNRSQDD [TIMM21] | 52.1 °C | 51.6 °C | 0.315 | -0.0739 | -0.209 | 0.0282
MQPWHGKAMQRASEAGATAPKASARNARGAPMDPTESPAAPEAALPKAGKFGPARKSGSRQKKSAPDTQERPPVRATGARAKKAPQRAQDTQPSDATSAPGAEGLEPPAAREPALSRAGSCRQRGARCSTKPRPPPGPWDVPSPGLPVSAPILVRRDAAPGASKLRAVLEKLKLSRDDISTAAGMVKGVVDHLLLRLKCDSAFRGVGLLNTGSYYEHVKISAPNEFDVMFKLEVPRIQLEEYSNTRAYYFVKFKRNPKENPLSQFLEGEILSASKMLSKFRKIIKEEINDIKDTDVIMKRKRGGSPAVTLLISEKISVDITLALESKSSWPASTQEGLRIQNWLSAKVRKQLRLKPFYLVPKHAKEGNGFQEETWRLSFSHIEKEILNNHGKSKTCCENKEEKCCRKDCLKLMKYLLEQLKERFKDKKHLDKFSSYHVKTAFFHVCTQNPQDSQWDRKDLGLCFDNCVTYFLQCLRTEKLENYFIPEFNLFSSNLIDKRSKEFLTKQIEYERNNEFPVFDEF [MB21D1] | 52.6 °C | 53.9 °C | -0.379 | 1.19 | -1.72 | -0.155
PTPN23 | 49.6 °C | 49.2 °C | -1.39 | -2.28 | 0.216 | -0.134
MAKLLSCVLGPRLYKIYRERDSERAPASVPETPTAVTAPHSSSWDTYYQPRALEKHADSILALASVFWSISYYSSPFAFFYLYRKGYLSLSKVVPFSHYAGTLLLLLAGVACLRGIGRWTNPQYRQFITILEATHRNQSSENKRQLANYNFDFRSWPVDFHWEEPSSRKESRGGPSRRGVALLRPEPLHRGTADTLLNRVKKLPCQITSYLVAHTLGRRMLYPGSVYLLQKALMPVLLQGQARLVEECNGRRAKLLACDGNEIDTMFVDRRGTAEPQGQKLVICCEGNAGFYEVGCVSTPLEAGYSVLGWNHPGFAGSTGVPFPQNEANAMDVVVQFAIHRLGFQPQDIIIYAWSIGGFTATWAAMSYPDVSAMILDASFDDLVPLALKVMPDSWRGLVTRTVRQHLNLNNAEQLCRYQGPVLLIRRTKDEIITTTVPEDIMSNRGNDLLLKLLQHRYPRVMAEEGLRVVRQWLEASSQLEEASIYSRWEVEEDWCLSVLRSYQAEHGPDFPWSVGEDMSADGRRQLALFLARKHLHNFEATHCTPLPAQNFQMPWHL [ABHD16A] | 51 °C | 51.3 °C | 0.0741 | -0.0149 | -0.125 | -0.122
MKSLSLLLAVALGLATAVSAGPAVIECWFVEDASGKGLAKRPGALLLRQGPGEPPPRPDLDPELYLSVHDPAGALQAAFRRYPRGAPAPHCEMSRFVPLPASAKWASGLTPAQNCPRALDGAWLMVSISSPVLSLSSLLRPQPEPQQEPVLITMATVVLTVLTHTPAPRVRLGQDALLDLSFAYMPPTSEAASSLAPGPPPFGLEWRRQHLGKGHLLLAATPGLNGQMPAAQEGAVAFAAWDDDEPWGPWTGNGTFWLPTVQPFQEGTYLATIHLPYLQGQVTLELAVYKPPKVSLMPATLARAAPGEAPPELLCLVSHFYPSGGLEVEWELRGGPGGRSQKAEGQRWLSALRHHSDGSVSLSGHLQPPPVTTEQHGARYACRIHHPSLPASGRSAEVTLEVAGLSGPSLEDSVGLFLSAFLLLGLFKALGWAAVYLSTCKDSKKKAE [TAPBP] | 52.5 °C | 53 °C | 0.903 | 1.98 | 0.297 | 0.000151
